PMC5816668, “Insights into the inhibitory mechanisms of NADH on the αγ heterodimer of human NAD-dependent isocitrate dehydrogenase” (Scientific Reports, 2018)

Substrate: NC(=O)c1ccc[n+]([C@@H]2O[C@H](COP(=O)(O)OP(=O)(O)OC[C@H]3O[C@@H](n4cnc5c(N)ncnc54)[C@H](O)[C@@H]3O)[C@@H](O)[C@H]2O)c1
Experiment: purified protein
Format: biochemical, Homo sapiens
Conditions: 33 mM Tris-acetate pH 7.4, 2 mM Mn2+, 20 mM DL-isocitrate, 25 °C, no NADH, Michaelis-Menten fit, varied: cofactor

B1: αγ heterodimer of human NAD-IDH (Homo sapiens) (protein)
chain 1: TGGVQTVTLIPGDGIGPEISAAVMKIFDAAKAPIQWEERNVTAIQGPGGKWMIPSEAKESMDKNKMGLKGPLKTPIAAGHPSMNLLLRKTFDLYANVRPCVSIEGYKTPYTDVNIVTIRENTEGEYSGIEHVIVDGVVQSIKLITEGASKRIAEFAFEYARNNHRSNVTAVHKANIMRMSDGLFLQKCREVAESCKDIKFNEMYLDTVCLNMVQDPSQFDVLVMPNLYGDILSDLCAGLIGGLGVTPSGNIGANGVAIFESVHGTAPDIAGKDMANPTALLLSAVMMLRHMGLFDHAARIEAACFATIKDGKSLTKDLGGNAKCSDFTEEICRRVKDLD
chain 2: FSEQTIPPSAKYGGRHTVTMIPGDGIGPELMLHVKSVFRHACVPVDFEEVHVSSNADEEDIRNAIMAIRRNRVALKGNIETNHNLPPSHKSRNNILRTSLDLYANVIHCKSLPGVVTRHKDIDILIVRENTEGEYSSLEHESVAGVVESLKIITKAKSLRIAEYAFKLAQESGRKKVTAVHKANIMKLGDGLFLQCCREVAARYPQITFENMIVDNTTMQLVSRPQQFDVMVMPNLYGNIVNNVCAGLVGGPGLVAGANYGHVYAVFETATRNTGKSIANKNIANPTATLLASCMMLDHLKLHSYATSIRKAVLASMDNENMHTPDIGGQGTTSEAIQDVIRHIRVINGRAVEA
notes: E. coli BL21(DE3) Codon-Plus co-expression from pQlinkN-α-γ-tev-His6; C-terminal His6 of gamma cut with TEV protease; alpha 37 kDa, gamma 39 kDa; heterodimer
K0.5: 0.267 ± 0.002 mM
